Source: article PMC6742228

Target: A/Puerto Rico/8/1934 (H1) HA (influenza A virus A/Puerto Rico/8/1934 (H1N1)) (UniProt P03452)

Substance	HA-pseudovirus neutralization titer (IC95), 293T cells [µg/mL]	Plaque reduction titer (IC50), replicating virus on MDCK cells [µg/mL]
MAb C179 (antibody)	0.31	27.7
MAb FI6 (antibody)	0.11	3.7
MAb CR6261 (antibody)	0.09	
